Experimental data: patent US20240368668A1, “SUBSTRATES AND BIOMARKERS OF ADAMTS7” (The Broad Institute, Inc., priority 2021, published 2024)
Square brackets hold non-standard residues; d marks the D form. Ends that are not written are not given here.

Molecular target: T1, mouse ADAMTS7 (Mus musculus, UniProt Q68SA9)
T1 construct: Full-length mouse Adamts7 1-1857 (Uniprot Q68SA9, WT or E373Q catalytic mutant); expressed in transfected cells; host or cells: Human Coronary Artery Smooth Muscle Cells (HCA-SMC, Lonza), adenovirus 50 MOI
T1 sequence (Q68SA9 221-1657): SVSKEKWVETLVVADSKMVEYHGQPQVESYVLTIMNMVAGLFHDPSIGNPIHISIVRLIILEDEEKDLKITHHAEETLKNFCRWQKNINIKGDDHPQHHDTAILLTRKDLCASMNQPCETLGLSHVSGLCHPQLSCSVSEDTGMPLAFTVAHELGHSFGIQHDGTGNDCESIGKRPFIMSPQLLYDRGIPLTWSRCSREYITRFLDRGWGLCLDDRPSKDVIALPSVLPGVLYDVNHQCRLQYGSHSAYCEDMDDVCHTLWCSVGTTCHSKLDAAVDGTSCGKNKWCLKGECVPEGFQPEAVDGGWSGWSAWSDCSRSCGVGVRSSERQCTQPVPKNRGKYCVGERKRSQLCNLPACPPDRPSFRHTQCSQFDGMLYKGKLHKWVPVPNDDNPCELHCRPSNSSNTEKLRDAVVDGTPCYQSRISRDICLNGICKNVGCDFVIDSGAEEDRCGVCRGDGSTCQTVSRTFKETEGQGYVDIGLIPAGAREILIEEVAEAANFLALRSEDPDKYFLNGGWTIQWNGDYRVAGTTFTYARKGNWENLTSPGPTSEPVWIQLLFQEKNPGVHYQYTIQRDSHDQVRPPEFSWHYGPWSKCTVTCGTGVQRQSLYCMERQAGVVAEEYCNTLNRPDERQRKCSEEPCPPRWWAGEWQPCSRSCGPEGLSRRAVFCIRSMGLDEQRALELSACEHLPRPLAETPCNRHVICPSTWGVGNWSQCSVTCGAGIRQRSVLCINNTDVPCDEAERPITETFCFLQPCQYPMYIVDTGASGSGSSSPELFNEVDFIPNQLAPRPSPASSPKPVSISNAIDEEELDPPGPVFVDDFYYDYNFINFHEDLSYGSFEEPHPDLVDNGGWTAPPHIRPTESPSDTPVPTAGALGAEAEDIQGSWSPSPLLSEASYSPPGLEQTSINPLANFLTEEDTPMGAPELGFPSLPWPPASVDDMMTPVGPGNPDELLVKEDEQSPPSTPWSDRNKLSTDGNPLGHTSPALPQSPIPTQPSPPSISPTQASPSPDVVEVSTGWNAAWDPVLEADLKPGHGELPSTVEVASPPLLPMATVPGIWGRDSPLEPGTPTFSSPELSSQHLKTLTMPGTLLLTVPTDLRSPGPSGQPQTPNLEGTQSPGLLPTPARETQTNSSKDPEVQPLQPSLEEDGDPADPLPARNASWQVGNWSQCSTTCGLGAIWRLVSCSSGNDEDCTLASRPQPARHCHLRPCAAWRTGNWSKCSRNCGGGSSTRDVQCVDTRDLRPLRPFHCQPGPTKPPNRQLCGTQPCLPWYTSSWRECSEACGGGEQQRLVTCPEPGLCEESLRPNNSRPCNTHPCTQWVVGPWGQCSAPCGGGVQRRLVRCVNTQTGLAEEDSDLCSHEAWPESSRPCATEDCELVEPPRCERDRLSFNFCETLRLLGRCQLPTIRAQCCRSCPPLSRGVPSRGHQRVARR
Test: TMT10 TAILS N-terminomics, SMC2 experiment (process replicates, trypsin/AspN digest)
Assay type: cell-based
Settings: for logFC.mWT.over.Luc: SMC2_TAILS HC; for logFC.mWT.over.Lux: ADAMTS7 WT over luciferase
How it was run: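 Full-length mouse ADAMTS7 (WT or E373Q mutant, C-terminal 3xFLAG) or luciferase was transduced via adenovirus, 50 MOI, into HCA-SMC (SMC1, SMC2) or HUVEC. SMC1: pooled media, technical triplicates 400 ug; SMC2: process triplicates 300 ug; HUVEC: process triplicates 200 ug, bFGF2 10 ng/ml.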

[1] = log fold change of N-terminal peptide, Ad-mADAMTS7 WT over Luc

Substance	logFC.mWT.over.Luc (log fold change, mWT over Luc)	logFC.mWT.over.Lux (log fold change)	also measured
ACTG1_105 (LTEAPLNPKANR; listed as Homo sapiens)	1.80	–	–
ACTN4_5 (HAANQSYQYGPSSAGNGAGGGGSMG; listed as Homo sapiens)	2.65	–	–
ADAM9_74 (GKEHIIHLER; listed as Homo sapiens)	4.13	–	–
ADAM10_86 (FKVETSNKVL; listed as Homo sapiens)	2.45	–	–
ADNP2_375 (SQPVGPVNK; listed as Homo sapiens)	5.35	–	–
APLP2_452 (LVETHLAR; listed as Homo sapiens)	2.70	–	–
APOA1_86 (EQLGPVTQEFW; listed as Homo sapiens)	1.80	–	–
BMPER_43 (LTGSVAKCENEG; listed as Homo sapiens)	2.37	–	–
CEP192_728 (DKSTAGR; listed as Homo sapiens)	2.33	–	–
DBN1_434 (APVEPATA; listed as Homo sapiens)	1.61	–	–
DIS3L_75 (FPELKGIIFMQTACQAVQHQR; listed as Homo sapiens)	1.77	–	–
EIF4B_426 (QTGTSTTSSR; listed as Homo sapiens)	5.61	–	–
EMSY_943 (QTVVQVLAVK; listed as Homo sapiens)	1.13	–	–
FBLN2_665 (FSQVASNTIPLPLPQPNTCK; listed as Homo sapiens)	1.74	–	–
FN1_607 (SSSGPVEVFIT; listed as Homo sapiens)	1.08	–	–
FN1_1693 (LQPTVEYVVSVYAQNPSG; listed as Homo sapiens)	1.99	–	–
FN1_1780 (LQGLRPGSEYTVSVVALH; listed as Homo sapiens)	1.67	–	–
FN1_1805 (LIGTQSTAIPAPT; listed as Homo sapiens)	2.43	–	–
FOXG1_235 (LNKCFVKVPRHY; listed as Homo sapiens)	3.42	–	–

Substance	logFC.mWT.over.Luc (log fold change, mWT over Luc)	logFC.mWT.over.Lux (log fold change)	also measured
FSTL_1290 (LQKHQETA; listed as Homo sapiens)	2.58	–	–
KCND1_436 (RLAKSGTTNAFLQYKQNGGLE; listed as Homo sapiens)	1.60	–	–
LASP1_182 (SYGGYKEPAAPVSIQR; listed as Homo sapiens)	0.87	–	–
LOX_60 (LGSQYQPQR; listed as Homo sapiens)	1.25	–	–
SERPINH1_27 (AAAPGTAEKLSPKAATLAER; listed as Homo sapiens)	–	2.62	–
SMOC1_35 (LISDRDPQCNLHCSR; listed as Homo sapiens)	–	1.75	–
SPOCK1_126 (HWVGPSNLVK; listed as Homo sapiens)	–	1.29	–
SRGN_50 (LEEKGPMFELLPGESNKIPR; listed as Homo sapiens)	–	3.21	–
SRGN_60 (LPGESNKIPR; listed as Homo sapiens)	–	3.57	–
TGFBI_43 ([code q]HGPNVCAVQKVIGTNR; not fully specified; listed as Homo sapiens)	–	0.85	–
TGFBI_208 (GIVTVNCAR; listed as Homo sapiens)	–	0.89	–
TGFBI_276 (TLLAPT[code n]EAFEKIPSETLNR; not fully specified; listed as Homo sapiens)	–	0.75	–
TGFBI_524 (SAGLTETLNR; listed as Homo sapiens)	–	0.84	–
TG_1017 (GASALLR; listed as Homo sapiens)	–	4.08	–
TLN1_1501 (HTSALCNSCR; listed as Homo sapiens)	–	1.31	–
VASN_138 (HIQPGAFDTLDR; listed as Homo sapiens)	–	1.63	–
VCAN_3367 (FKNSSSAK; listed as Homo sapiens)	–	–	logFC.mWT.over.Luc [1]: 0.79
VIM_276 (YESVAAKNLQ; listed as Homo sapiens)	–	–	logFC.mWT.over.Luc [1]: 0.88

Continued, in another order:

logFC.mWT.over.Luc (log fold change, mWT over Luc)	logFC.mWT.over.Lux (log fold change)	Substance	also measured
0.95	–	AMER2_654 (LAGTTIRATACH; listed as Homo sapiens)	–
2.37	–	CALU_176 (FTAFLHPEEY; listed as Homo sapiens)	–
2.91	–	CAP1_300 (FSAPKPQTSPSPKR; listed as Homo sapiens)	–
1.35	–	CCL2_28 (INAPVTCCYNFTNR; listed as Homo sapiens)	–
1.65	–	CTSB_109 (WAFGAVEAIS; listed as Homo sapiens)	–
1.54	–	ECM1_38 (FQEVGYAAPPSPPLSR; listed as Homo sapiens)	–
2.25	–	ECM1_44 (AAPPSPPLSR; listed as Homo sapiens)	–
3.12	–	ECM1_108 (QEAVPLQK; listed as Homo sapiens)	–
3.18	–	EEF1G_23 (QYSGAQVR; listed as Homo sapiens)	–
4.67	–	FLNA_689 (VNKPAEFTV; listed as Homo sapiens)	–
3.91	–	FLNC_2649 (FVGQKNSFTV; listed as Homo sapiens)	–
1.99	–	FN1_35 ([code q]MVQPQSPVAVSQSKPGCY; not fully specified (residue 2); listed as Homo sapiens)	–
1.35	–	FN1_99 (DKYTGNTYR; listed as Homo sapiens)	–
1.38	–	FN1_2113 (FVTHPGY; listed as Homo sapiens)	–
0.90	–	HEG1_51 (GLELQLER; listed as Homo sapiens)	–
3.54	–	HEG1_224 (FQTKSGTAS; listed as Homo sapiens)	–
1.88	–	KRT28_2 (SLQFSNGSR; listed as Homo sapiens)	–

logFC.mWT.over.Luc (log fold change, mWT over Luc)	logFC.mWT.over.Lux (log fold change)	Substance	also measured
2.71	–	LOXL1_157 (SVSASAFASTYR; listed as Homo sapiens)	–
3.45	–	LOX_125 (FQAGYSTSR; listed as Homo sapiens)	–
–	0.94	QSOX1_558 (VAAAPELAMGALELESR; listed as Homo sapiens)	–
–	1.32	SDC4_106 (LEENEVIPKR; listed as Homo sapiens)	–
–	1.66	SRGN_51 (EEKGPMFELLPGESNKIPR; listed as Homo sapiens)	–
–	2.82	SRGN_62 (GESNKIPR; listed as Homo sapiens)	–
–	4.56	STC1_37 (QNSAEVVR; listed as Homo sapiens)	–
–	1.59	STC2_239 (HGEAGHHLPEPSSR; listed as Homo sapiens)	–
–	1.09	STC2_244 (HHLPEPSSR; listed as Homo sapiens)	–
–	0.77	TGFBI_24 (GPAKSPYQLVLQHSR; listed as Homo sapiens)	–
–	0.96	TGFBI_50 (AVQKVIGTNR; listed as Homo sapiens)	–
–	0.75	TGFBI_497 (VLTPPMGTVMDVLKGDNR; not fully specified (residue 6); listed as Homo sapiens)	–
–	0.91	TGFBI_534 (EGVYTVFAPTNEAFR; listed as Homo sapiens)	–
–	3.55	THBS1_972 (QNDPNWVVR; listed as Homo sapiens)	–
–	2.65	TMEM132A_52 (LLDAPEHFR; listed as Homo sapiens)	–
–	4.48	VASP_229 (AIAGAKLR; listed as Homo sapiens)	–
